B1: wt NicA2 (Pseudomonas putida S16) (protein)
chain: MSDKTKTNEGFSRRSFIGSAAVVTAGVAGLGAIDAASATQKTNRASTVKGGFDYDVVVVGGGFAGATAARECGLQGYRTLLLEARSRLGGRTFTSRFAGQEIEFGGAWVHWLQPHVWAEMQRYGLGVVEDPLTNLDKTLIMYNDGSVESISPDEFGKNIRIAFEKLCHDAWEVFPRPHEPMFTERARELDKSSVLDRIKTLGLSRLQQAQINSYMALYAGETTDKFGLPGVLKLFACGGWNYDAFMDTETHYRIQGGTIGLINAMLTDSGAEVRMSVPVTAVEQVNGGVKIKTDDDEIITAGVVVMTVPLNTYKHIGFTPALSKGKQRFIKEGQLSKGAKLYVHVKQNLGRVFAFADEQQPLNWVQTHDYSDELGTILSITIARKETIDVNDRDAVTREVQKMFPGVEVLGTAAYDWTADPFSLGAWAAYGVGQLSRLKDLQAAEGRILFAGAETSNGWHANIDGAVESGLRAGREVKQLLS
notes: full-length, C-terminal His6 tag kept, expressed in E. coli, purified, 52 kDa on SDS-PAGE; FAD enzyme

Substrate in the first series: CN1CCC[C@H]1c1cccnc1
As to the kind of experiment: residual nicotine by GC; progress curves fitted in KinTek, Km derived from kcat/Km and kcat. Format: biochemical, Pseudomonas putida. Conditions: rat serum, 37 °C, 250 nM (40 ng/mL) nicotine, O2 as oxidant. From the text:
(§1) residual nicotine by GC; progress curves fitted in KinTek, Km derived from kcat/Km and kcat on wt NicA2
What is called Km is the substrate concentration at which the rate is half of its maximum. The term kcat denotes the maximal rate divided by the concentration of active sites. In general, kcat/Km refers to the second-order rate constant that governs catalysis at low substrate concentration. As to B1, the Km was 0.24 µM, the kcat came to 0.015 s⁻¹ and the kcat/Km stood at 64000 M⁻¹ s⁻¹.

The test system of a further series is T1, CN1CCC[C@H]1c1cccnc1.
T1 construct: full-length, C-terminal His6 tag kept, expressed in E. coli, purified, 52 kDa on SDS-PAGE; FAD enzyme
Described as above. In kind it is biochemical, Pseudomonas putida. As to conditions: rat serum, 37 °C, 250 nM (40 ng/mL) nicotine, O2 as oxidant.
Text: as §1
As for “wt NicA2 (Pseudomonas putida S16; F104S)”, the Michaelis-Menten constant (Km) was found to be 0.25 µM, the kcat was 0.031 s⁻¹ and the kcat/Km was 130000 M⁻¹ s⁻¹.

Take “wt NicA2 (Pseudomonas putida S16; F104R)”: the Km is 0.27 µM, the kcat is 0.041 s⁻¹ and the catalytic efficiency (kcat/Km) was found to be 150000 M⁻¹ s⁻¹.

With “wt NicA2 (Pseudomonas putida S16; A426C)”, the Km came to 0.23 µM, the kcat stood at 0.03 s⁻¹ and the kcat/Km was determined as 130000 M⁻¹ s⁻¹.

Regarding “wt NicA2 (Pseudomonas putida S16; G106A)”, the Michaelis constant (Km) was determined as 0.28 µM, the kcat was 0.031 s⁻¹ and the catalytic efficiency (kcat/Km) is 110000 M⁻¹ s⁻¹.

As for “wt NicA2 (Pseudomonas putida S16; A107T)”, the Km was determined as 0.285 µM, the kcat came out at 0.05 s⁻¹ and the kcat/Km came to 180000 M⁻¹ s⁻¹.

For “wt NicA2 (Pseudomonas putida S16; F355H)”, the Km stood at 0.22 µM, the kcat was found to be 0.029 s⁻¹ and the catalytic efficiency (kcat/Km) amounted to 130000 M⁻¹ s⁻¹.

As for “wt NicA2 (Pseudomonas putida S16; F104T)”, the Km stood at 0.33 µM, the kcat is 0.055 s⁻¹ and the kcat/Km is 170000 M⁻¹ s⁻¹.

In the case of “wt NicA2 (Pseudomonas putida S16; A107G)”, the Km worked out at 0.335 µM, the kcat turned out to be 0.053 s⁻¹ and the kcat/Km is 160000 M⁻¹ s⁻¹.

As to “wt NicA2 (Pseudomonas putida S16; F104I)”, the Km came to 0.24 µM, the kcat stood at 0.039 s⁻¹ and the kcat/Km worked out at 160000 M⁻¹ s⁻¹.

Take “wt NicA2 (Pseudomonas putida S16; A107R)”: the Michaelis-Menten constant (Km) came out at 0.83 µM, the catalytic constant (kcat) was determined as 0.159 s⁻¹ and the kcat/Km was 190000 M⁻¹ s⁻¹.

The values above are taken from paper PMC6679477, “Optimization of a nicotine degrading enzyme for potential use in treatment of nicotine addiction” (BMC Biotechnology, 2019).
